In the supplement of paper PMC9732359:
± gives the uncertainty stated by the source.

experiment: protein stability index of a GFP-peptide fusion (yeast GPS) (PSI 1-4); higher = more stable; sorted into four equal gates, so the index is relative within each strain; conditions: doa10∆
Method in brief: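 Plasmids in a pooled yeast library fused tiled 17-residue yeast protein peptides downstream of GFP and also expressed Cherry. Mid-log cultures grown without leucine were sorted into four equal gates by GFP/Cherry fluorescence ratio. Each gate's plasmids were PCR-amplified and Illumina-sequenced, and reads were matched to strains by barcodes. The protein stability index is derived by multiplying each gate's read frequency by its gate number and summing the results.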

Row | Sequence | protein stability index
1 | KLKHMVLDKMHARARGP [RET1] | 2.69 ± 0.094

same assay, conditions: pdr5∆

Row | Sequence | protein stability index
2 | IYDFITLFSSIEPQVIN [ECM29] | 2 ± 0.061
3 | IYDSEDPQQVFDERIKF [RPN3] | 3.09 ± 0.089
4 | IYHGNHDVGELFWKVKE [PRE2] | 1.95 ± 0.066
5 | IYSVEKKISRLPKFLTV [UBP6] | 2.07 ± 0.066
6 | KAAFIRVNGSEFVHKYL [RPT3] | 2.46 ± 0.073
7 | KADIGKPGRMPFNFTVT [CDC53] | 2.75 ± 0.048
8 | KAEKAEIRKRRASSLKA [RPS6A] | 3.48 ± 0.11
9 | KAERVEDQKVVDKALIA [RPL6A] | 3.5 ± 0.06
10 | KAFTNWNKRDFMAFINA [ISW2] | 1.25 ± 0.091
11 | KAGVEAISQSLRDESLT [PRE5] | 3.09 ± 0.082
12 | KAIFQFVCRGMAATQTI [ECM29] | 1.73 ± 0.048
13 | KAKTTKKVVLRLECVKC [RPL42A] | 1.52 ± 0.17
14 | KAKYNTPKYRLVVRFTN [RPL5] | 1.53 ± 0.073
15 | KALDNACGAFININEFA [CDC53] | 3 ± 0.14
16 | KALQSIGQLIGEVMKEL [RPT4] | 3.17 ± 0.15
17 | KAMDIPIGRHEELLAQY [SWP82] | 2.25 ± 0.043
18 | KAPLEDDDKKPDDDKIV [RPT1] | 3.11 ± 0.17
19 | KASRKSVGLPSKVASSL [ECM29] | 2.79 ± 0.066
20 | KCGSVTVRLIPAPRGSG [RPS2] | 2.07 ± 0.072
21 | KCGVISPRFNVKIGDIE [RPS22A] | 3.35 ± 0.093
22 | KDDMKVDDAIELALKTL [PRE9] | 3.52 ± 0.1
23 | KDEEIEKLLQQDREITN [MED8] | 3.12 ± 0.13
24 | KDEETTEKARLIDFEYV [RRI2] | 3.5 ± 0.14
25 | KDGEIMLWNLAAKKAMY [ASC1] | 1.87 ± 0.05
26 | KDIFRYMQRTVEEAHDF [RPB2] | 1.45 ± 0.046

Row | Sequence | protein stability index
27 | KDLQENLLVLRGKNEII [RPO21] | 1.52 ± 0.056
28 | KDNAIYNGFIDIFSNLS [YCS4] | 2.72 ± 0.081
29 | KDPDVPLVLLQQIPLLC [POP3] | 2.57 ± 0.064
30 | KDQIQAGKWFDPVLDWR [SIR4] | 3.49 ± 0.094
31 | KDRYINGDKKVDIYSLP [YMR129W/POM152] | 2.77 ± 0.094
32 | KDTIVKEAEDKTLVALE [RPC37] | 3.11 ± 0.093
33 | KEDEPVVARRSNSANVS [ITC1] | 3.06 ± 0.068
34 | KEDTVSWFKQKYDADVL [RPL11A] | 1.43 ± 0.055
35 | KEENDEGLSAQIAFDLV [RPN2] | 3.56 ± 0.098
36 | KEFKGIKVTVQLKIQNR [RPL12A] | 1.62 ± 0.071
37 | KEGASTNWDDHAIIIFG [YMR153W/NUP53] | 3.05 ± 0.075
38 | KEISTRVFNAKDTTGPK [YCS4] | 2.91 ± 0.13
39 | KELMLQSKKLIEEKLSS [YIL149C/MLP2] | 2.96 ± 0.11
40 | KENKKRKNFKMGPLYQN [IRR1] | 1.99 ± 0.08
41 | KENLSKSSWRQEWLANL [SIR4] | 1.68 ± 0.034
42 | KEPRLVIVTDPRLDAQA [RPS0B] | 3.42 ± 0.17
43 | KERYTVEDELTESIALS [RRI1] | 3.29 ± 0.052
44 | KESEISHNENKMDFSSK [YIL149C/MLP2] | 3 ± 0.093
45 | KESWDPNTTKTKLRAFV [YGR119C/NUP57] | 2.93 ± 0.19
46 | KEVASLPNKSTISKTVS [FAS2] | 3.05 ± 0.12
47 | KFHSELQYLDKHIKNLE [RPN12] | 2.7 ± 0.17
48 | KFILSGFIFTSMILEAI [RRI2] | 1.2 ± 0.035
49 | KFLREVFVDGEANWPLP [RPO21] | 3.16 ± 0.079
50 | KFNNGVVIAADTRSTQG [PUP1] | 2.4 ± 0.13
51 | KFPDMGSLWVEFCDEPS [RPB5] | 2.89 ± 0.06

Row | Sequence | protein stability index
52 | KFQLKKVLCLAVAVGNV [RPL1A] | 1.25 ± 0.051
53 | KGGEQISQLYSDAVMAE [YJL041W/NSP1] | 2.01 ± 0.12
54 | KGPRFRKLTSQEINDRL [PRE8] | 3.19 ± 0.11
55 | KHAEFDLSLLGYCDDIA [SIR2] | 2.68 ± 0.066
56 | KHGTYDKLDDDGLIAPG [RPB2] | 2.92 ± 0.24
57 | KHKKKHLKHENANDETT [RPB4] | 2.84 ± 0.085
58 | KHLEDNTLLVTGPFKVN [RPL6B] | 2.53 ± 0.16
59 | KHVGFELLSMGNAKESK [SRP72] | 2.03 ± 0.14
60 | KHWGGGILGNKAQAKMD [RPL8A] | 3.47 ± 0.11
61 | KHWTEKSLHEMNERDWR [PRP28] | 3.02 ± 0.3
62 | KIADLVRIPPDQFHRDT [RPC25] | 2.52 ± 0.062
63 | KIAERSLLLKNYLNDMH [SKP1] | 2.54 ± 0.07
64 | KIALREYINNCKKNTKK [POP4] | 2.86 ± 0.27
65 | KIAVLNNDKREIQEELE [SMC1] | 3.37 ± 0.056
66 | KIFIKDPKFVNSLLAKL [YML103C/NUP188] | 2.25 ± 0.063
67 | KIFTPNLLQISAAELER [SNF5] | 1.97 ± 0.061
68 | KIGPLGLSPKKVGEDIA [RPL12A] | 3.2 ± 0.18
69 | KIINKPNELSQILTVDP [RPC82] | 2.56 ± 0.13
70 | KILQKRSISKELIVSEE [SIR3] | 2.52 ± 0.075
71 | KIMNVTTDSLTKVLQAD [YMR129W/POM152] | 3.05 ± 0.068
72 | KIPLFTFAKSKNYSRPS [SIR4] | 2.12 ± 0.081
73 | KIQQHNTILNSSSDFRL [BRR2] | 2.89 ± 0.067
74 | KIREDHINKIPSNSTTT [SRB8] | 2.71 ± 0.044
75 | KIRELEAELSSTKVENS [YIL149C/MLP2] | 3.12 ± 0.099
76 | KIVDKDGIRQVDDFQAQ [PRE1] | 2.9 ± 0.11

Row | Sequence | protein stability index
77 | KIVYIAPLKALVQEQVR [BRR2] | 1.59 ± 0.044
78 | KKACIIFFDEIDAVGGA [RPT1] | 2.67 ± 0.054
79 | KKASKVTVDADIDDILK [ISW2] | 3.18 ± 0.065
80 | KKDRATGDADEPELRVL [RPO21] | 3.48 ± 0.074
81 | KKEANLFPEQQTKEIKT [RPL6B] | 3.25 ± 0.074
82 | KKEELVEIAYHKCDELI [RPO31] | 2.96 ± 0.1
83 | KKFIEISDVKIQVAAFI [PRP8] | 2.54 ± 0.052
84 | KKFVSQIQKNVDLLQFP [POP3] | 2.23 ± 0.073
85 | KKGEYARFKSKDERDTW [SMC3] | 3.23 ± 0.17
86 | KKGKSSDKDATTDGKND [RPN1] | 3.28 ± 0.2
87 | KKHTKKFKRHHSDRYHR [RPL32] | 2.99 ± 0.034
88 | KKKVYTTPKKIKHKHKK [RPS31] | 2.86 ± 0.2
89 | KKMTKKAKRSNLYTPKA [PRP8] | 2.19 ± 0.038
90 | KKNNAASELANPYSSYV [YAR002W/NUP60] | 3.02 ± 0.047
91 | KKPGKIAKPNTANAKHT [SMB1] | 2.73 ± 0.091
92 | KKRNMPLQSIPEIGNRK [SWI1] | 2.67 ± 0.037
93 | KKRSKVRKETYSSYIYK [HTB2] | 3.33 ± 0.066
94 | KKVASANATAAESDVAK [RPL16A] | 3.04 ± 0.065
95 | KKVLEIDFFKTDDSFED [BRN1] | 2.08 ± 0.055
96 | KLAFGLTKLNEDDLVGV [TAF14] | 3.15 ± 0.072
97 | KLEEESKRGNDKKHFNN [RPC53] | 3.15 ± 0.094
98 | KLEGSENSEPPALESSP [SNF2] | 2.97 ± 0.064
